T1: CARD11, Q9BXL7
T1 sequence (Q9BXL7 662-765, limits assumed, looked up): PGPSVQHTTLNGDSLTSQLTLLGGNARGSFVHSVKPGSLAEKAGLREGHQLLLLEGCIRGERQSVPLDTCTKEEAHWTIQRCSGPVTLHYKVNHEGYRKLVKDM

T2: PDZD7_3, Q9H5P4
T2 sequence (Q9H5P4 857-944, limits assumed, looked up): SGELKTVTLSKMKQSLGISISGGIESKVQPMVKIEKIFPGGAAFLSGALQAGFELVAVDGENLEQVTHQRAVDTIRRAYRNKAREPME

T3: DLG3_1, Q92796
T3 sequence (Q92796 125-227, limits assumed, looked up): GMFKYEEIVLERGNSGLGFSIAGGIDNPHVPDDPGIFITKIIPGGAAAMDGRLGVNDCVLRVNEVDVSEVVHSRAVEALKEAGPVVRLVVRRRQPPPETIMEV

T4: SHANK1, Q9Y566
T4 sequence (Q9Y566 658-767, limits assumed, looked up): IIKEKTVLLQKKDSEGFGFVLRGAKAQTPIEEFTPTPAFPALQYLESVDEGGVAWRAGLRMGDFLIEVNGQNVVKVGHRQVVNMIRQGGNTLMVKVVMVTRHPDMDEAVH

T5: SNTB1, Q13884
T5 sequence (Q13884 107-205, limits assumed, looked up): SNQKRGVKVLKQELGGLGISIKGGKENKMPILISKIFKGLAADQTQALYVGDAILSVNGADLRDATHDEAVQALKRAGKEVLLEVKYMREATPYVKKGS

T6: SYNJ2BP, P57105
T6 sequence (P57105 8-110, limits assumed, looked up): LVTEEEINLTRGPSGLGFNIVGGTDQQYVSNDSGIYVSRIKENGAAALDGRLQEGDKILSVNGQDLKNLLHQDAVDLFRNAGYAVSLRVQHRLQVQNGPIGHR

T7: APBA2_2, Q99767
T7 sequence (Q99767 654-744, limits assumed, looked up): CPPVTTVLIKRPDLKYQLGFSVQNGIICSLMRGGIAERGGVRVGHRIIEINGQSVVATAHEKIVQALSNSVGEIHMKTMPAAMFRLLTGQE

T8: SNTA1, Q13424
T8 sequence (Q13424 82-180, limits assumed, looked up): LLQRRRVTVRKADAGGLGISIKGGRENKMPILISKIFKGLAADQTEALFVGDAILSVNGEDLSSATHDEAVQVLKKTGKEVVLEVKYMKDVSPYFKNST

T9: DVL3, Q92997
T9 sequence (Q92997 244-331, limits assumed, looked up): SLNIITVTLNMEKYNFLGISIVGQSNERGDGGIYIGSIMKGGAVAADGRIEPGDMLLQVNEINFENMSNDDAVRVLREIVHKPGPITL

T10: SIPA1L2, Q9P2F8
T10 sequence (Q9P2F8 945-1036, limits assumed, looked up): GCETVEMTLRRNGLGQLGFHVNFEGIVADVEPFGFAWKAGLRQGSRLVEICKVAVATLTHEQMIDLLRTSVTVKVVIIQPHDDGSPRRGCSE

T11: TJP3_3, O95049
T11 sequence (O95049 375-456, limits assumed, looked up): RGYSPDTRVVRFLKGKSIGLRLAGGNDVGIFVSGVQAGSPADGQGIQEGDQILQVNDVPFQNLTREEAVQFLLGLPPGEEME

T12: GRIP1_5, Q9Y3R0
T12 sequence (Q9Y3R0 568-668, limits assumed, looked up): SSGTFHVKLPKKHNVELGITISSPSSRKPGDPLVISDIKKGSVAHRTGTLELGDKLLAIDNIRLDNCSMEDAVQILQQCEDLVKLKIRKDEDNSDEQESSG

T13: APBA3_1, O96018
T13 sequence (O96018 389-490, limits assumed, looked up): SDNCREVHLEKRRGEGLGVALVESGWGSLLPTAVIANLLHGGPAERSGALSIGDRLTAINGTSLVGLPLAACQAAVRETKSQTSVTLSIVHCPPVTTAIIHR


target: T1, CARD11, Q9BXL7; test: holdup assay; set-up: key: below the threshold = too weak to quantify, mostly under pKd 3.1 to 4; conditions: plain residues with an end cap or a label only (N-terminal biotin on a linker: ado-ado)

| pKd | Binder |
| --- | --- |
| below the threshold | RKPKPSSSCC [RAB9A, P51151] |
| below the threshold | TASPAKETSF [SLC2A7, Q6PXP3] |

target: T2, PDZD7_3, Q9H5P4; test: holdup assay; set-up: key: below the threshold = too weak to quantify, mostly under pKd 3.1 to 4; conditions: plain residues with an end cap or a label only (N-terminal biotin on a linker: ado-ado)

| pKd | Binder |
| --- | --- |
| 3.76 | RKPKPSSSCC [RAB9A, P51151] |
| below the threshold | TASPAKETSF [SLC2A7, Q6PXP3] |

target: T3, DLG3_1, Q92796; test: holdup assay; set-up: key: below the threshold = too weak to quantify, mostly under pKd 3.1 to 4; conditions: plain residues with an end cap or a label only (N-terminal biotin on a linker: ado-ado)

| pKd | Binder |
| --- | --- |
| below the threshold | RKPKPSSSCC [RAB9A, P51151] |
| below the threshold | TASPAKETSF [SLC2A7, Q6PXP3] |

target: T4, SHANK1, Q9Y566; test: holdup assay; set-up: key: below the threshold = too weak to quantify, mostly under pKd 3.1 to 4; conditions: plain residues with an end cap or a label only (N-terminal biotin on a linker: ado-ado)

| pKd | Binder |
| --- | --- |
| below the threshold | RKPKPSSSCC [RAB9A, P51151] |
| below the threshold | TASPAKETSF [SLC2A7, Q6PXP3] |

target: T5, SNTB1, Q13884; test: holdup assay; set-up: key: below the threshold = too weak to quantify, mostly under pKd 3.1 to 4; conditions: plain residues with an end cap or a label only (N-terminal biotin on a linker: ado-ado)

| pKd | Binder |
| --- | --- |
| below the threshold | RKPKPSSSCC [RAB9A, P51151] |
| 3.53 | TASPAKETSF [SLC2A7, Q6PXP3] |

target: T6, SYNJ2BP, P57105; test: holdup assay; set-up: key: below the threshold = too weak to quantify, mostly under pKd 3.1 to 4; conditions: plain residues with an end cap or a label only (N-terminal biotin on a linker: ado-ado)

| pKd | Binder |
| --- | --- |
| below the threshold | RKPKPSSSCC [RAB9A, P51151] |
| below the threshold | TASPAKETSF [SLC2A7, Q6PXP3] |

target: MAGI2_6, Q86UL8; test: holdup assay; set-up: key: below the threshold = too weak to quantify, mostly under pKd 3.1 to 4; conditions: plain residues with an end cap or a label only (N-terminal biotin on a linker: ado-ado)
Sequence (Q86UL8 1141-1229): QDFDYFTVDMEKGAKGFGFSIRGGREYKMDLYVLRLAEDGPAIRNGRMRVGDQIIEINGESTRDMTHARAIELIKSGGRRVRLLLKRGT

| pKd | Binder |
| --- | --- |
| below the threshold | RKPKPSSSCC [RAB9A, P51151] |
| 4.1 | TASPAKETSF [SLC2A7, Q6PXP3] |

target: T7, APBA2_2, Q99767; test: holdup assay; set-up: key: below the threshold = too weak to quantify, mostly under pKd 3.1 to 4; conditions: plain residues with an end cap or a label only (N-terminal biotin on a linker: ado-ado)

| pKd | Binder |
| --- | --- |
| below the threshold | RKPKPSSSCC [RAB9A, P51151] |
| below the threshold | TASPAKETSF [SLC2A7, Q6PXP3] |

target: MAGI2_5, Q86UL8; test: holdup assay; set-up: key: below the threshold = too weak to quantify, mostly under pKd 3.1 to 4; conditions: plain residues with an end cap or a label only (N-terminal biotin on a linker: ado-ado)
Sequence (Q86UL8 915-1017): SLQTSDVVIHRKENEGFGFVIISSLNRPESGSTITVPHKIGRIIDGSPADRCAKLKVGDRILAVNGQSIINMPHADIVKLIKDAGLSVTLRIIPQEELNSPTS

| pKd | Binder |
| --- | --- |
| below the threshold | RKPKPSSSCC [RAB9A, P51151] |
| below the threshold | TASPAKETSF [SLC2A7, Q6PXP3] |

target: T8, SNTA1, Q13424; test: holdup assay; set-up: key: below the threshold = too weak to quantify, mostly under pKd 3.1 to 4; conditions: plain residues with an end cap or a label only (N-terminal biotin on a linker: ado-ado)

| pKd | Binder |
| --- | --- |
| below the threshold | RKPKPSSSCC [RAB9A, P51151] |
| 3.57 | TASPAKETSF [SLC2A7, Q6PXP3] |

target: GRID2IP_2, A4D2P6; test: holdup assay; set-up: key: below the threshold = too weak to quantify, mostly under pKd 3.1 to 4; conditions: plain residues with an end cap or a label only (N-terminal biotin on a linker: ado-ado)
Sequence (A4D2P6 272-370): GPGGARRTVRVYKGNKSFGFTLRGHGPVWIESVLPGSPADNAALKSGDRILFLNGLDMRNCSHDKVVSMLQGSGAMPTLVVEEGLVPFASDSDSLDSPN

| pKd | Binder |
| --- | --- |
| 3.54 | RKPKPSSSCC [RAB9A, P51151] |
| below the threshold | TASPAKETSF [SLC2A7, Q6PXP3] |

target: PDLIM1, O00151; test: holdup assay; set-up: key: below the threshold = too weak to quantify, mostly under pKd 3.1 to 4; conditions: plain residues with an end cap or a label only (N-terminal biotin on a linker: ado-ado)
Sequence (O00151 1-87): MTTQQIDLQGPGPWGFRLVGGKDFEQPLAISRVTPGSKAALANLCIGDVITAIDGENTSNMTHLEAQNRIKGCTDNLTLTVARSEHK

| pKd | Binder |
| --- | --- |
| below the threshold | RKPKPSSSCC [RAB9A, P51151] |
| below the threshold | TASPAKETSF [SLC2A7, Q6PXP3] |

target: Inadl_4, Q8NI35; test: holdup assay; set-up: key: below the threshold = too weak to quantify, mostly under pKd 3.1 to 4; conditions: plain residues with an end cap or a label only (N-terminal biotin on a linker: ado-ado)
Sequence (Q8NI35 547-651): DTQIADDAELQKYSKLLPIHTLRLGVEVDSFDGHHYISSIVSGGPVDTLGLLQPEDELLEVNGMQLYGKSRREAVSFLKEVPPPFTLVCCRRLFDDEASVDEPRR

| pKd | Binder |
| --- | --- |
| below the threshold | RKPKPSSSCC [RAB9A, P51151] |
| below the threshold | TASPAKETSF [SLC2A7, Q6PXP3] |

target: DLG5_1, Q8TDM6; test: holdup assay; set-up: key: below the threshold = too weak to quantify, mostly under pKd 3.1 to 4; conditions: plain residues with an end cap or a label only (N-terminal biotin on a linker: ado-ado)
Sequence (Q8TDM6 617-713): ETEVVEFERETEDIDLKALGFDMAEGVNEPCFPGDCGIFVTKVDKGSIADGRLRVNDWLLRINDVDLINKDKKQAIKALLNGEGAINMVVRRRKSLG

| pKd | Binder |
| --- | --- |
| below the threshold | RKPKPSSSCC [RAB9A, P51151] |
| below the threshold | TASPAKETSF [SLC2A7, Q6PXP3] |

target: T9, DVL3, Q92997; test: holdup assay; set-up: key: below the threshold = too weak to quantify, mostly under pKd 3.1 to 4; conditions: plain residues with an end cap or a label only (N-terminal biotin on a linker: ado-ado)

| pKd | Binder |
| --- | --- |
| below the threshold | RKPKPSSSCC [RAB9A, P51151] |
| below the threshold | TASPAKETSF [SLC2A7, Q6PXP3] |

target: T10, SIPA1L2, Q9P2F8; test: holdup assay; set-up: key: below the threshold = too weak to quantify, mostly under pKd 3.1 to 4; conditions: plain residues with an end cap or a label only (N-terminal biotin on a linker: ado-ado)

| pKd | Binder |
| --- | --- |
| below the threshold | RKPKPSSSCC [RAB9A, P51151] |
| below the threshold | TASPAKETSF [SLC2A7, Q6PXP3] |

target: T11, TJP3_3, O95049; test: holdup assay; set-up: key: below the threshold = too weak to quantify, mostly under pKd 3.1 to 4; conditions: plain residues with an end cap or a label only (N-terminal biotin on a linker: ado-ado)

| pKd | Binder |
| --- | --- |
| below the threshold | RKPKPSSSCC [RAB9A, P51151] |
| below the threshold | TASPAKETSF [SLC2A7, Q6PXP3] |

target: SCRIB_2, Q14160; test: holdup assay; set-up: key: below the threshold = too weak to quantify, mostly under pKd 3.1 to 4; conditions: plain residues with an end cap or a label only (N-terminal biotin on a linker: ado-ado)
Sequence (Q14160 857-960): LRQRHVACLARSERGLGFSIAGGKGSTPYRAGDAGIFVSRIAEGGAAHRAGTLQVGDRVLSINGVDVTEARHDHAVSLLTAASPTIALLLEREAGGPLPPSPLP

| pKd | Binder |
| --- | --- |
| below the threshold | RKPKPSSSCC [RAB9A, P51151] |
| 4.12 | TASPAKETSF [SLC2A7, Q6PXP3] |

target: HTRA1, Q92743; test: holdup assay; set-up: key: below the threshold = too weak to quantify, mostly under pKd 3.1 to 4; conditions: plain residues with an end cap or a label only (N-terminal biotin on a linker: ado-ado)
Sequence (Q92743 360-477): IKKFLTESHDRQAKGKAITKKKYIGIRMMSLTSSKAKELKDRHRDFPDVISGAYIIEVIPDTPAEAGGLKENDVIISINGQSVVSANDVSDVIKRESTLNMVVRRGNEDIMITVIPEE

| pKd | Binder |
| --- | --- |
| below the threshold | RKPKPSSSCC [RAB9A, P51151] |
| below the threshold | TASPAKETSF [SLC2A7, Q6PXP3] |

target: T12, GRIP1_5, Q9Y3R0; test: holdup assay; set-up: key: below the threshold = too weak to quantify, mostly under pKd 3.1 to 4; conditions: plain residues with an end cap or a label only (N-terminal biotin on a linker: ado-ado)

| pKd | Binder |
| --- | --- |
| below the threshold | RKPKPSSSCC [RAB9A, P51151] |
| below the threshold | TASPAKETSF [SLC2A7, Q6PXP3] |

target: MAST1, Q9Y2H9; test: holdup assay; set-up: key: below the threshold = too weak to quantify, mostly under pKd 3.1 to 4; conditions: plain residues with an end cap or a label only (N-terminal biotin on a linker: ado-ado)
Sequence (Q9Y2H9 962-1065): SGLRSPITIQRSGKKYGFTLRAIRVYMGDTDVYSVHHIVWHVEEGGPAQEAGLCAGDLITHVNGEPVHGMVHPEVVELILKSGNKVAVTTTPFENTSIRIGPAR

| pKd | Binder |
| --- | --- |
| below the threshold | RKPKPSSSCC [RAB9A, P51151] |
| 4.55 | TASPAKETSF [SLC2A7, Q6PXP3] |

target: Inadl_6, Q8NI35; test: holdup assay; set-up: key: below the threshold = too weak to quantify, mostly under pKd 3.1 to 4; conditions: plain residues with an end cap or a label only (N-terminal biotin on a linker: ado-ado)
Sequence (Q8NI35 1058-1167): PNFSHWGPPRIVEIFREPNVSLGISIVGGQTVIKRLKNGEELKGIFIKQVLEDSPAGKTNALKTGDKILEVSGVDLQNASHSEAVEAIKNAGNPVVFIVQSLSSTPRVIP

| pKd | Binder |
| --- | --- |
| below the threshold | RKPKPSSSCC [RAB9A, P51151] |
| below the threshold | TASPAKETSF [SLC2A7, Q6PXP3] |

target: T13, APBA3_1, O96018; test: holdup assay; set-up: key: below the threshold = too weak to quantify, mostly under pKd 3.1 to 4; conditions: plain residues with an end cap or a label only (N-terminal biotin on a linker: ado-ado)

| pKd | Binder |
| --- | --- |
| below the threshold | RKPKPSSSCC [RAB9A, P51151] |
| below the threshold | TASPAKETSF [SLC2A7, Q6PXP3] |

target: DLG1_1, Q12959; test: holdup assay; set-up: key: below the threshold = too weak to quantify, mostly under pKd 3.1 to 4; conditions: plain residues with an end cap or a label only (N-terminal biotin on a linker: ado-ado)

| pKd | Binder |
| --- | --- |
| below the threshold | RKPKPSSSCC [RAB9A, P51151] |
| below the threshold | TASPAKETSF [SLC2A7, Q6PXP3] |

target: GRIP2_4, Q9C0E4; test: holdup assay; set-up: key: below the threshold = too weak to quantify, mostly under pKd 3.1 to 4; conditions: plain residues with an end cap or a label only (N-terminal biotin on a linker: ado-ado)
Sequence (Q9C0E4 446-548): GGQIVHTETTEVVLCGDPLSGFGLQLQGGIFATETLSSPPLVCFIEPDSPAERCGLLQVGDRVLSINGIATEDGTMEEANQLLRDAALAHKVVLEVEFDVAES

| pKd | Binder |
| --- | --- |
| below the threshold | RKPKPSSSCC [RAB9A, P51151] |
| below the threshold | TASPAKETSF [SLC2A7, Q6PXP3] |
